The nature of the series: protein stability index of a GFP-peptide fusion (GPS, HEK-293T) (PSI 1-6); higher = more stable. Conditions: c terminus: a fixed tail appended.

± gives the standard deviation.
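Note: 24-mer peptide tiles fused after GFP, lentivirally expressed, FACS-sorted into six equal bins by GFP/DsRed ratio, decoded by Illumina sequencing, PSI is the read-weighted mean bin number.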

ITERDKRPEGYNLKDEEGKLKDLS [PPP2R2C]: the protein stability index was found to be 5.51 ± 0.23 (treatment: DMSO) and 5.54 ± 0.13 (treatment: MLN4924 1 uM, 8 h).

For ITNTDVDCLKACQEQIEAVLLNSL [CCND2], the protein stability index reads like this: (treatment: DMSO) 2.73 ± 0.2; (treatment: MLN4924 1 uM, 8 h) 2.86 ± 0.39.

With ITPQGVAMRAGVLADDHLIEVNGE [PDZK1], the protein stability index reads like this: (treatment: DMSO) 4.72 ± 0.095; (treatment: MLN4924 1 uM, 8 h) 4.78 ± 0.22.

Turning to IYEFWENSSVWNSHLQTNYSKTFQ [NECAB1], the protein stability index was 2.28 ± 0.31 (treatment: DMSO) and 2.16 ± 0.26 (treatment: MLN4924 1 uM, 8 h).

As to IYSLRNKEFKSALCKIVRRTISLL [OR10K2], the protein stability index (treatment: DMSO) was 2.74 ± 1.2 and the protein stability index (treatment: MLN4924 1 uM, 8 h) was determined as 2.17 ± 0.49.

Take KADTKGFCNISLFEDLPLQEPQSP [PLAGL1]: the protein stability index runs as follows: (treatment: DMSO) 4.46 ± 0.14; (treatment: MLN4924 1 uM, 8 h) 4.61 ± 0.12.

Turning to KAIKQKLWEALCSQGAISEGAQRD [C22orf31], the protein stability index is, setting by setting: (treatment: DMSO) 2.72 ± 0.27; (treatment: MLN4924 1 uM, 8 h) 2.85 ± 0.065.

As to KCSDCGKAFLTKTMLIVHHRTHTG [ZNF649], the protein stability index reads like this: (treatment: DMSO) 2.84 ± 0.27; (treatment: MLN4924 1 uM, 8 h) 3.05 ± 0.45.

As to KDIAHFWELGGGTSLLDLISIPIT [DYNC2LI1], the protein stability index reads like this: (treatment: DMSO) 2.54 ± 0.54; (treatment: MLN4924 1 uM, 8 h) 2.07 ± 0.24.

For the sequence KDSVMQQNLVYYRFHRARWGLEEE [P3H4], the protein stability index stood at 2.51 ± 0.28 (treatment: DMSO) and 2.43 ± 0.085 (treatment: MLN4924 1 uM, 8 h).

On to KDVRAPSRPAVGPPQPGCPAFIIV [ZSWIM9], for which the protein stability index was 2.23 ± 0.75 (treatment: DMSO) and 2.43 ± 0.6 (treatment: MLN4924 1 uM, 8 h).

As for KEEEQSCEYETRLPGNHSTSQEIF [ZNF232], the protein stability index worked out at 5.02 ± 0.3 (treatment: DMSO) and 5 ± 0.13 (treatment: MLN4924 1 uM, 8 h).

Take KEEGTVNGASWHTVAGSLNDFSYL [CPXM2]: the protein stability index is, setting by setting: (treatment: DMSO) 3.35 ± 0.53; (treatment: MLN4924 1 uM, 8 h) 3.33 ± 0.34.

Regarding KEGPMIHSGSVVGAGLPQFQSISL [CLCN6], the protein stability index is 2.91 ± 0.12 (treatment: DMSO) and 2.86 ± 0.35 (treatment: MLN4924 1 uM, 8 h).

On to KEHAVTMPCTWVMACAYAPSGCAI [GNB5], for which the protein stability index by setting is: (treatment: DMSO) 2.8 ± 0.36; (treatment: MLN4924 1 uM, 8 h) 2.49 ± 0.59.

KENQDIRLLQAQLQAQKEELQSLM [PBXIP1]: the protein stability index runs as follows: (treatment: DMSO) 4.05 ± 0.12; (treatment: MLN4924 1 uM, 8 h) 4.14 ± 0.22.

Turning to KEQAIWKHPQPAPAVTPDPWGVQG [PKD2L1], the protein stability index (treatment: DMSO) came to 3.75 ± 0.22 and the protein stability index (treatment: MLN4924 1 uM, 8 h) turned out to be 4.07 ± 0.31.

KGCLKLCRRCYDWIHRPGCRCKNS [SPRY1]: the protein stability index runs as follows: (treatment: DMSO) 3.04 ± 0.2; (treatment: MLN4924 1 uM, 8 h) 3.46 ± 0.2.

In the case of KGGLVWDENSSDGRYVKENCKPLK [CLK3], the protein stability index runs as follows: (treatment: DMSO) 4.53 ± 0.098; (treatment: MLN4924 1 uM, 8 h) 4.82 ± 0.12.

Take KGKYNISSEDYRQLELVILQSEPH [KCNK9]: the protein stability index is 2.87 ± 0.28 (treatment: DMSO) and 2.93 ± 0.29 (treatment: MLN4924 1 uM, 8 h).

As for KHFLEAIENNKYGWFWVCPGGGDI [ZC3H15], the protein stability index worked out at 2.8 ± 0.4 (treatment: DMSO) and 2.43 ± 0.39 (treatment: MLN4924 1 uM, 8 h).

In the case of KIWRTPNGKTIEMDTQFTIRAREL [IQUB], the protein stability index was 2.55 ± 0.24 (treatment: DMSO) and 2.66 ± 0.19 (treatment: MLN4924 1 uM, 8 h).

For the sequence KKEQRRLGIPKNPWLWSEQQVCQW [ETS2], the protein stability index (treatment: DMSO) worked out at 2.12 ± 0.18 and the protein stability index (treatment: MLN4924 1 uM, 8 h) was 2.43 ± 0.43.

On to KKPPEESTCFERPCFKWYTSPWSE [ADAMTSL2], for which the protein stability index is, setting by setting: (treatment: DMSO) 2.67 ± 0.14; (treatment: MLN4924 1 uM, 8 h) 2.88 ± 0.42.

In the case of KKSELLQRITQEQEKKLSFIEALI [TRIM63], the protein stability index runs as follows: (treatment: DMSO) 2.07 ± 0.3; (treatment: MLN4924 1 uM, 8 h) 2.41 ± 0.35.

Take KKTCRRINYCALNKPGCEHECVNM [MATN2]: the protein stability index (treatment: DMSO) came to 2.8 ± 0.38 and the protein stability index (treatment: MLN4924 1 uM, 8 h) is 2.95 ± 0.74.

For KLEISTKEVPVVHTETKTITYESS [EPB41L3], the protein stability index runs as follows: (treatment: DMSO) 4.83 ± 0.14; (treatment: MLN4924 1 uM, 8 h) 4.64 ± 1.

With KLGLGIDEDEVAAEEPNAAVPDEI [HSP90AB1], the protein stability index runs as follows: (treatment: DMSO) 5.8 ± 0.18; (treatment: MLN4924 1 uM, 8 h) 5.48 ± 0.24.

With KLTDFGFAKKLVDRTWTLCGTPEY [PRKX], the protein stability index runs as follows: (treatment: DMSO) 2.12 ± 0.11; (treatment: MLN4924 1 uM, 8 h) 2.27 ± 0.23.

Source of the values: the supplement of paper PMC10567573.
